Reference: paper PMC2755895 (The Journal of Biological Chemistry, 2009)
Values belong to the substance of their own block, whether it stands above or below them. No end group written: not given here.

Key:
[1] = molecular target: mutation of single hydrophobic residues to alanine (p53N peptides)
[2] = molecular target: QS2 W53Q/F54S p53N-(35–57) (UniProt P04637); assay: fluorescence polarisation
[3] = molecular target: hDp53N-(10–57)-aspartic acid mimic (UniProt P04637); assay: fluorescence polarisation
[4] = system: N-terminal domain of MDM2; conditions: cited from earlier work
subdomains of p300 = conditions: cited from earlier work
PC4CTD = PC4CTD (Homo sapiens, UniProt P53999); assay: Fluorescence titration of p53TAD peptides; format: binding; conditions: in words

- Kd [1]: 14 to 16 µM
- Kd [2]: 20 µM
- Kd [3]: 5 µM
Substance: PC4 C-terminal DNA-binding domain, PC4CTD-(61–127) (from UniProt P53999 61-127) (domain or fragment)

Substance: TAD1: p53 transactivation subdomain TAD1-(1–40)
- interaction with N-terminal domain of MDM2 [4]: very tight
- binding to p300 subdomains (subdomains of p300): bind only weakly

- quantifiability of binding to PC4CTD (PC4CTD): no quantifiable binding
Substance: D41K/D42K/D48K/D49K/E51K p53N-(35–57) (LPSQAMKKLMLSPKKIKQWFTED-{K(methoxycoumarin)})

- Kd (p53 DNA-binding domain): > 100 µM
Substance: p53 N-terminal transactivation domain, TAD-(1–93) (from UniProt P04637 1-93) (domain or fragment)
